Earlier results, collected in patent publication US20230127008A1, “STAT3-TARGETED BASE EDITOR THERAPEUTICS FOR THE TREATMENT OF MELANOMA AND OTHER CANCERS” (The Broad Institute, Inc., priority 2020, published 2023).

System: DNA
Conditions: SpCas9 mutation relative to SEQ ID NO: 74; UniProtKB-Q99ZW2 entry

B1: 175-307 deletion: SpCas9 mutation relative to canonical SpCas9, SEQ ID NO: 74 (protein)
chain: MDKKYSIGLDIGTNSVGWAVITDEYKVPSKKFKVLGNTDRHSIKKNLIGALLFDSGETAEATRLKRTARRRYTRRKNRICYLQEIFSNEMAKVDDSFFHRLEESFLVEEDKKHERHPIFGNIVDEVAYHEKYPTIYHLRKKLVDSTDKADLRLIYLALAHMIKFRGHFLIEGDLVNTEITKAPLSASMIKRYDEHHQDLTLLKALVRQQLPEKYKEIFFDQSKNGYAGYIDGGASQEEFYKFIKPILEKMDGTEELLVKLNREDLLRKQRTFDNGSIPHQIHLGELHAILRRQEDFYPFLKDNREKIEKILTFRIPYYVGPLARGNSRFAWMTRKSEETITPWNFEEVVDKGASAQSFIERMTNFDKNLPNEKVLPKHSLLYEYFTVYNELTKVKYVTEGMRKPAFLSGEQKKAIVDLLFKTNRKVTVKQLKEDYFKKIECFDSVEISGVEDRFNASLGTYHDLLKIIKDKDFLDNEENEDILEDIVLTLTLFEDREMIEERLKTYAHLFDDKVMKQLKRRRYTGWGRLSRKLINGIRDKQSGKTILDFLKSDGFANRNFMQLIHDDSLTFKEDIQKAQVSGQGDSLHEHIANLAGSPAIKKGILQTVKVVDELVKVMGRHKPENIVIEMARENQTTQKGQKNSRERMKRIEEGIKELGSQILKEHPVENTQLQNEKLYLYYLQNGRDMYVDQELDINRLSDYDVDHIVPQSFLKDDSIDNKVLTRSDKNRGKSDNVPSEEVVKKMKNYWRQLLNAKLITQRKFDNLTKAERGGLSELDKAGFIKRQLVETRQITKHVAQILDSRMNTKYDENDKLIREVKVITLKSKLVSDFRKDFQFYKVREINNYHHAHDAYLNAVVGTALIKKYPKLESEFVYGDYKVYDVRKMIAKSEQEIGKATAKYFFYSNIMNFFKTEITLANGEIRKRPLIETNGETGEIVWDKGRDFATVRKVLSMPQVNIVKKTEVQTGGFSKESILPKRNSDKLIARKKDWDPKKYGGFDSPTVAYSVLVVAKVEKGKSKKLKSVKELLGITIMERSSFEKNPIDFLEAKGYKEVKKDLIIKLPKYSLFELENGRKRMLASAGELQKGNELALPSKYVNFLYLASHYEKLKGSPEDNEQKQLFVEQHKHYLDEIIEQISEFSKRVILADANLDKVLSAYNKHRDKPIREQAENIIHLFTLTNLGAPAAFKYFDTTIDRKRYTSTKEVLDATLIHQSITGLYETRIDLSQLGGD
modifications: Streptococcus pyogenes
- decreased DNA cleavage: About 50% decreased DNA cleavage
